Consider 2 molecules from US6100445.

Experiment [1] has as its target mouse precursor form of IL-1β (preIL-1β) (mouse) (UniProt P10749).
The target in experiment [2] is T1, murine interleukin-1β converting enzyme (ICE) (mouse).
T1 sequence: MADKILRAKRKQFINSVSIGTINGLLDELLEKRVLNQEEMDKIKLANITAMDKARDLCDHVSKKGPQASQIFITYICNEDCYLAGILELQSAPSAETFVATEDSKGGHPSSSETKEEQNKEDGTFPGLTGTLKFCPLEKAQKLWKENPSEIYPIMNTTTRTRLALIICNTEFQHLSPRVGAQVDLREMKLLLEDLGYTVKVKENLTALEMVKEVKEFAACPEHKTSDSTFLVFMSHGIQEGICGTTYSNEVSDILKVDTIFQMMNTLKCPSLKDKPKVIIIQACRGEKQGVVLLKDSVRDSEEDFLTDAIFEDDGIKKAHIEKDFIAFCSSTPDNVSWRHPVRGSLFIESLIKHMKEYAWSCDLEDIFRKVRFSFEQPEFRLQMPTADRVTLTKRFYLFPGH

Regarding “murine interleukin-1β converting enzyme (ICE)”, the IL-1β (pg/ml) released into the medium by macrophages stimulated with LPS and ATP, ELISA in experiment [1] worked out at 4430 pg/mL.

B1: tetrapeptide aldehyde Ac-YVAD-CHO (peptide)
peptide: Ac-YVAD-aldehyde
B1 gave a percent inhibition of matIL-1β release from LPS-treated ICE +/+ macrophages in experiment [2] of 78%.
